From paper doi:10.1101/2023.12.19.572481 (bioRxiv, 2023)

Molecular target: the molecule itself
Assay: high-speed atomic force microscopy

B1: Recombinant Human Neuronal Pentraxin 1 Protein (NP1) (natural protein, UniProt Q15818 23-432, looked up)
chain: QDFGPTRFICTSVPVDADMCAASVAAGGAEELRSSVLQLRETVLQQKETILSQKETIRELTAKLGRCESQSTLDPGAGEARAGGGRKQPGSGKNTMGDLSRTPAAETLSQLGQTLQSLKTRLENLEQYSRLNSSSQTNSLKDLLQSKIDELERQVLSRVNTLEEGKGGPRNDTEERVKIETALTSLHQRISELEKGQKDNRPGDKFQLTFPLRTNYMYAKVKKSLPEMYAFTVCMWLKSSATPGVGTPFSYAVPGQANELVLIEWGNNPMEILINDKVAKLPFVINDGKWHHICVTWTTRDGVWEAYQDGTQGGSGENLAPYHPIKPQGVLVLGQEQDTLGGGFDATQAFVGELAHFNIWDRKLTPGEVYNLATCSTKALSGNVIAWAESHIEIYGGATKWTFEACRQIN
Does B1 bind?
Result: binds
